Source: the supplement of paper PMC6757056
± gives the standard deviation of the averaged measurements.

B1: library; a variant is named by its letters at N, in order (parent)
chain: GCUGUCACCGAGAAACUGUGAAGUAUAUCUUAAACCUGGGCACUUAAAAGAUAUAUGGAGUUAGUAGUGCAACCUGCUCGGUCUGAUGAGUCCNNNNNNGGACGAAACAGC

Experiments:
cyclic di-GMP [1] = variants of: B1; assay: normalized RNA/DNA level without ligand (relative to sTRSVctl = 100) (log10 (% of sTRSVctl)); HEK293T; ligand: cyclic di-GMP (c-di-GMP-II aptamer); higher = less ribozyme self-cleavage, higher mRNA level; conditions: reporter: mCherry (pCS4076), ligand present: no
Procedure, shortened: (§1)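 For each 6-well well, 4 µg of library plasmid encoding mCherry-linked ribozyme switches, or eGFP-linked ones in some ligand experiments, was transfected into HEK293T. Any ligand was added 1 h before transfection, and RNA was extracted with EDTA 72 h after it, then reverse-transcribed, amplified, barcoded and sequenced. RNA level was obtained by dividing RNA reads by DNA reads, normalizing to a spiked-in non-cleaving sequence or to the top sequences, then scaling and log-transforming. The top set was 25 sequences, scaling was ×100 with log10, and ≥100 DNA reads were required.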

cyclic di-GMP [2] = variants of: B1; assay: normalized RNA/DNA level with ligand (relative to sTRSVctl = 100) (log10 (% of sTRSVctl)); HEK293T; ligand: cyclic di-GMP (c-di-GMP-II aptamer); ligand concentration (+) RNA-Seq: 1 mM; higher = less ribozyme self-cleavage, higher mRNA level; conditions: reporter: mCherry (pCS4076), ligand present: yes
Procedure, shortened: as §1

Row | Variant | normalized RNA/DNA level without ligand (log10) (cyclic di-GMP [1]) | normalized RNA/DNA level with ligand (log10) (cyclic di-GMP [2])
1 | GCUUUA | 1.63 ± 0.023 | 1.83 ± 0.1
2 | CGAAUC | 1.6 ± 0.043 | 1.78 ± 0.11
3 | CGAAUG | 1.66 ± 0.019 | 1.85 ± 0.047
4 | GCUGCC | 1.67 ± 0.067 | 1.83 ± 0.16
5 | GCUGCU | 1.682 ± 0.0098 | 1.8 ± 0.11
6 | ACUCAU | 1.61 ± 0.022 | 1.81 ± 0.15
7 | ACUCAA | 1.52 ± 0.029 | 1.71 ± 0.099
8 | ACUCAC | 1.699 ± 0.0095 | 1.81 ± 0.092
9 | UCUAAG | 1.64 ± 0.079 | 1.82 ± 0.072
10 | UCUAAC | 1.6887 ± 0.0016 | 1.83 ± 0.13
11 | UGACAA | 1.69 ± 0.018 | 1.8 ± 0.11
12 | UGACAG | 1.712 ± 0.0029 | 1.82 ± 0.097
13 | UGACAC | 1.7 ± 0.022 | 1.87 ± 0.086
14 | UCUCUU | 1.74 ± 0.039 | 1.86 ± 0.089
15 | UCUCUA | 1.666 ± 0.0017 | 1.82 ± 0.12
16 | UCUCUG | 1.718 ± 0.015 | 1.87 ± 0.14
17 | UCUCUC | 1.81 ± 0.069 | 1.9 ± 0.12
18 | CCUGGA | 1.56 ± 0.052 | 1.76 ± 0.069
19 | CCUGGG | 1.72 ± 0.018 | 1.82 ± 0.18
20 | CCUGGU | 1.672 ± 0.0096 | 1.83 ± 0.13
21 | CGAAGU | 1.676 ± 0.0054 | 1.84 ± 0.16
22 | CGAAGC | 1.7 ± 0.06 | 1.81 ± 0.054
23 | CGAAGG | 1.634 ± 0.0028 | 1.82 ± 0.097
24 | GCUCGG | 1.78 ± 0.018 | 1.88 ± 0.052

Row | Variant | normalized RNA/DNA level without ligand (log10) (cyclic di-GMP [1]) | normalized RNA/DNA level with ligand (log10) (cyclic di-GMP [2])
25 | GCUCGC | 1.82 ± 0.042 | 1.87 ± 0.097
26 | GCUCGA | 1.57 ± 0.04 | 1.73 ± 0.099
27 | CCUUAU | 1.6 ± 0.034 | 1.79 ± 0.087
28 | CCUUAC | 1.71 ± 0.0031 | 1.83 ± 0.12
29 | ACUACG | 1.61 ± 0.022 | 1.81 ± 0.1
30 | ACUACC | 1.69 ± 0.04 | 1.86 ± 0.097
31 | ACUACU | 1.68 ± 0.041 | 1.82 ± 0.14
32 | UCUAGG | 1.81 ± 0.049 | 1.88 ± 0.12
33 | UCUAGA | 1.74 ± 0.021 | 1.88 ± 0.15
34 | UCUAGU | 1.66 ± 0.054 | 1.83 ± 0.057
35 | UCUAGC | 1.69 ± 0.023 | 1.88 ± 0.13
36 | GCUCUG | 1.629 ± 0.0036 | 1.8 ± 0.11
37 | GCUCUC | 1.66 ± 0.026 | 1.81 ± 0.079
38 | CCUACG | 1.7 ± 0.021 | 1.82 ± 0.13
39 | CCUACU | 1.581 ± 0.011 | 1.76 ± 0.12
40 | CCUACA | 1.53 ± 0.07 | 1.77 ± 0.044
41 | GCUUGU | 1.577 ± 0.005 | 1.75 ± 0.15
42 | GCUUGC | 1.77 ± 0.057 | 1.87 ± 0.17
43 | GCUUGG | 1.59 ± 0.023 | 1.8 ± 0.072
44 | GCUUGA | 1.54 ± 0.08 | 1.76 ± 0.12
45 | CCUAGG | 1.79 ± 0.045 | 1.84 ± 0.13
46 | CCUAGA | 1.585 ± 0.0086 | 1.79 ± 0.074
47 | CCUAGU | 1.72 ± 0.02 | 1.85 ± 0.11
48 | CCUAGC | 1.6495 ± 0.00083 | 1.82 ± 0.056

Row | Variant | normalized RNA/DNA level without ligand (log10) (cyclic di-GMP [1]) | normalized RNA/DNA level with ligand (log10) (cyclic di-GMP [2])
49 | CGACAC | 1.594 ± 0.0068 | 1.76 ± 0.11
50 | CGACAG | 1.8 ± 0.023 | 1.87 ± 0.091
51 | GCUAGU | 1.58 ± 0.069 | 1.78 ± 0.086
52 | GCUAGG | 1.54 ± 0.12 | 1.7 ± 0.062
53 | GCUAGC | 1.696 ± 0.0018 | 1.8 ± 0.17
54 | ACUGGC | 1.61 ± 0.084 | 1.79 ± 0.12
55 | GCUUAU | 1.6 ± 0.017 | 1.76 ± 0.13
56 | GCUUAC | 1.53 ± 0.026 | 1.75 ± 0.075
57 | UGAAAA | 1.73 ± 0.024 | 1.82 ± 0.1
58 | UGAAAC | 1.705 ± 0.017 | 1.84 ± 0.062
59 | UGAAAG | 1.77 ± 0.047 | 1.87 ± 0.1
60 | ACUAUG | 1.586 ± 0.01 | 1.75 ± 0.087
61 | ACUAUU | 1.5 ± 0.047 | 1.7 ± 0.11
62 | ACUAUC | 1.622 ± 0.012 | 1.79 ± 0.067
63 | AGAAUA | 1.43 ± 0.091 | 1.63 ± 0.098
64 | GGACAC | 1.71 ± 0.053 | 1.84 ± 0.13
65 | GGAACC | 1.74 ± 0.039 | 1.86 ± 0.14
66 | ACUAAC | 1.607 ± 0.015 | 1.76 ± 0.15
67 | CGAACC | 1.679 ± 0.01 | 1.8 ± 0.098
68 | CGAACG | 1.75 ± 0.056 | 1.9 ± 0.089
69 | CGAACU | 1.48 ± 0.18 | 1.72 ± 0.042
70 | CCUGUC | 1.69 ± 0.019 | 1.87 ± 0.089
71 | CCUGUG | 1.54 ± 0.12 | 1.76 ± 0.049
72 | CCUGUU | 1.67 ± 0.019 | 1.86 ± 0.084

Row | Variant | normalized RNA/DNA level without ligand (log10) (cyclic di-GMP [1]) | normalized RNA/DNA level with ligand (log10) (cyclic di-GMP [2])
73 | UCUCAA | 1.659 ± 0.013 | 1.83 ± 0.12
74 | UCUCAC | 1.78 ± 0.018 | 1.87 ± 0.066
75 | UCUCAG | 1.75 ± 0.073 | 1.89 ± 0.098
76 | UCUCAU | 1.638 ± 0.0046 | 1.78 ± 0.061
77 | AGAAAU | 1.71 ± 0.03 | 1.83 ± 0.058
78 | UGAAUG | 1.72 ± 0.037 | 1.86 ± 0.12
79 | UGAAUA | 1.677 ± 0.0075 | 1.82 ± 0.096
80 | UGAAUU | 1.683 ± 0.0066 | 1.84 ± 0.13
81 | AGAAGC | 1.56 ± 0.13 | 1.74 ± 0.077
82 | AGAAGU | 1.57 ± 0.022 | 1.75 ± 0.16
83 | GCUUCC | 1.72 ± 0.023 | 1.85 ± 0.034
84 | GCUUCG | 1.67 ± 0.022 | 1.76 ± 0.076
85 | ACUAGU | 1.674 ± 0.011 | 1.8 ± 0.065
86 | ACUAGG | 1.52 ± 0.071 | 1.7 ± 0.066
87 | ACUAGC | 1.6 ± 0.048 | 1.77 ± 0.12
88 | ACUAGA | 1.41 ± 0.066 | 1.64 ± 0.12
89 | CCUAUC | 1.63 ± 0.075 | 1.79 ± 0.077
90 | CCUAUG | 1.48 ± 0.038 | 1.7 ± 0.083
91 | CCUAUU | 1.56 ± 0.048 | 1.71 ± 0.097
92 | ACUCUA | 1.6 ± 0.046 | 1.77 ± 0.081
93 | ACUCUC | 1.77 ± 0.076 | 1.86 ± 0.12
94 | ACUCUG | 1.602 ± 0.0083 | 1.81 ± 0.096
95 | AGAACG | 1.463 ± 0.001 | 1.67 ± 0.094
96 | UCUGCG | 1.78 ± 0.035 | 1.85 ± 0.12

Row | Variant | normalized RNA/DNA level without ligand (log10) (cyclic di-GMP [1]) | normalized RNA/DNA level with ligand (log10) (cyclic di-GMP [2])
97 | UCUGCC | 1.8 ± 0.045 | 1.91 ± 0.064
98 | UCUGCA | 1.748 ± 0.0085 | 1.85 ± 0.13
99 | GCUACU | 1.66 ± 0.019 | 1.81 ± 0.1
100 | GCUACA | 1.583 ± 0.0028 | 1.79 ± 0.072
101 | GCUACC | 1.67 ± 0.065 | 1.84 ± 0.098
102 | UCUUGC | 1.752 ± 0.0056 | 1.88 ± 0.11
103 | UCUUGU | 1.732 ± 0.004 | 1.88 ± 0.1
104 | UCUUGG | 1.84 ± 0.039 | 1.93 ± 0.15
105 | CCUCGC | 1.745 ± 0.0039 | 1.82 ± 0.14
106 | CCUCGU | 1.75 ± 0.057 | 1.86 ± 0.084
107 | CCUCGG | 1.838 ± 0.011 | 1.94 ± 0.025
108 | CCUCGA | 1.71 ± 0.058 | 1.84 ± 0.093
109 | ACUCGG | 1.72 ± 0.074 | 1.76 ± 0.2
110 | ACUCGA | 1.52 ± 0.065 | 1.73 ± 0.11
111 | ACUCGC | 1.73 ± 0.027 | 1.88 ± 0.15
112 | ACUCGU | 1.76 ± 0.043 | 1.85 ± 0.021
113 | ACUUGC | 1.69 ± 0.029 | 1.83 ± 0.084
114 | ACUUGU | 1.668 ± 0.004 | 1.83 ± 0.1
115 | ACUUGG | 1.59 ± 0.048 | 1.75 ± 0.13
116 | ACUUGA | 1.49 ± 0.11 | 1.72 ± 0.13
